Numbered stars: 1 amine (or outer) side, 2 acyl side, 3 side chain; on linkers, the order of the positions; unused ones are H or OH. Bridge positions count the residues as written; N and C are the ends. Side chains are listed from the residue outwards. Ends that are not written are not given here. * marks the point of attachment. C20 diacid = O=C(O)CCCCCCCCCCCCCCCCCCC(=O)*; γGlu = O=C(O)[C@H](CCC(=O)[*:2])N[*:1]
T1: rat calcitonin receptor (rat, UniProt P32214 25-516)
T1 construct: whole, on cells; Membranes of transiently transfected BHK tk'ts 13 cells (Assay VIII); also called rCTR
T1 sequence (looked up): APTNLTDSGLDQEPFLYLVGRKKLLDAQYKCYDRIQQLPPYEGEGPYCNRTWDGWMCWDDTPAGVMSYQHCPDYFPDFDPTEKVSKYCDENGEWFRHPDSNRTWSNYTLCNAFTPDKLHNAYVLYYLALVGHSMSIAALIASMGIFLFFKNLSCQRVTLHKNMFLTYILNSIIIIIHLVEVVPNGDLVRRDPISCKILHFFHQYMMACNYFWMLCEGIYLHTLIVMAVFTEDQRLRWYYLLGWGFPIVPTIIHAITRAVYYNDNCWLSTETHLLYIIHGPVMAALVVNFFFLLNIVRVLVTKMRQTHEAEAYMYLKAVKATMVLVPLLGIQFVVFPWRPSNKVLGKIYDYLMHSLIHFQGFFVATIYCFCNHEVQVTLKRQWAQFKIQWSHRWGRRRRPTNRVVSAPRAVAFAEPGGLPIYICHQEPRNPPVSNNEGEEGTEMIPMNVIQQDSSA

T2: rat amylin receptor (rat calcitonin receptor + rat RAMP 3) (rat, UniProt P32214 25-516; Q9JJ73 23-147)
T2 construct: whole, on cells; Membranes of transiently transfected BHK tk'ts 13 cells (Assay VI); also called rAmylin-R; rat amylin 3(a) receptor
T2 sequence (looked up) 1: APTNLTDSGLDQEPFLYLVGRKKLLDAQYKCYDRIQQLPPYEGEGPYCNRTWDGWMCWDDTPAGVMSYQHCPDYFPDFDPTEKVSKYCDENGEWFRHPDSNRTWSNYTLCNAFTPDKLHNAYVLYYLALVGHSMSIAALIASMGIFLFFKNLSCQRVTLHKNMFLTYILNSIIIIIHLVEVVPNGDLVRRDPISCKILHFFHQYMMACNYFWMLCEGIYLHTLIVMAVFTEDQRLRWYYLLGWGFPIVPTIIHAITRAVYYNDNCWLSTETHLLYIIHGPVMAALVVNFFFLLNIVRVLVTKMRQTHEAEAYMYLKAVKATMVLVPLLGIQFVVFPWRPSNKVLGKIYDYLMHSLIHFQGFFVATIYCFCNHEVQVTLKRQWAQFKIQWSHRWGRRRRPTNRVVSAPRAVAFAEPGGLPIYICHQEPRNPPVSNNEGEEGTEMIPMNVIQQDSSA
T2 sequence (looked up) 2: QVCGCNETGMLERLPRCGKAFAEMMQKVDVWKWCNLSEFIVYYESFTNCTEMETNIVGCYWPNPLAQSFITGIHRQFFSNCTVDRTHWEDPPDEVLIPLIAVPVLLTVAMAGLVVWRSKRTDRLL

T3: human calcitonin receptor (human, UniProt P30988 25-474)
T3 construct: whole, on cells; Membranes of a stably transfected BHK cell line (Assay VII); also called hCTR; hCT
T3 sequence (looked up): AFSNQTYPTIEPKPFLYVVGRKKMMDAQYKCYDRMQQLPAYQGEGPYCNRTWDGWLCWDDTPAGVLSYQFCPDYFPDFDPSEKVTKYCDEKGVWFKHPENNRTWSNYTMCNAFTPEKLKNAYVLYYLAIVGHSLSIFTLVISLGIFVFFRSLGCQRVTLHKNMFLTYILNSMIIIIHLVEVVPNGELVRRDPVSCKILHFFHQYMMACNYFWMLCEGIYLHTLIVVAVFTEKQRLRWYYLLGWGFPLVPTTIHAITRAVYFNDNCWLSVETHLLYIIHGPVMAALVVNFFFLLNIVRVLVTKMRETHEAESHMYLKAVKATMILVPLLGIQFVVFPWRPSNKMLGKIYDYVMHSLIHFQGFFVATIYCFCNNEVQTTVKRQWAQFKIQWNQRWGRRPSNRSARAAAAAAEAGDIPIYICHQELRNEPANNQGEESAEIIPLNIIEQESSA


Experiments:
rat calcitonin receptor [1] = target: T1, rat calcitonin receptor; experiment: SPA competition with 125I-calcitonin, membranes of BHK cells with rat calcitonin receptor (Assay VIII)
[2] = target: T2, rat amylin receptor (rat calcitonin …); experiment: SPA competition with 125I-rat amylin, membranes of BHK cells with rat calcitonin receptor + rat RAMP3 (Assay VI)
rat calcitonin receptor [3] = target: T1, rat calcitonin receptor; experiment: ratio IC50 rat calcitonin receptor / IC50 rat amylin receptor (reference)
[4] = target: T3, human calcitonin receptor; experiment: ratio IC50 human calcitonin receptor / IC50 human amylin receptor (reference)
Procedure, shortened: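 Membranes (35 ng/μL final) + SPA beads, 50 mM Hepes pH 7.4 buffer with 1 mM CaCl2, 5 mM MgCl₂, 0.1% OA, 0.02% Tween20; 120 min, 25° C, shaking; centrifuged, counted; IC₅₀ by one-site binding competition.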

Binder | IC50 (rat calcitonin receptor [1]) [nM] | IC50 [2] [nM] | Ratio rCT/rAmylin binding (rat calcitonin receptor [3]) | Ratio hCT/hAmylin binding [4]
K([γGlu-γGlu-C20 diacid])CNTATCATQRLANFLRHSSPNFGAIPSSTNVGHNTY-NH2 (disulfide 2-7; N-terminus assumed; SMILES CC[C@H](C)[C@H](NC(=O)[C@H](C)NC(=O)CNC(=O)[C@H](Cc1ccccc1)NC(=O)[C@H](CC(N)=O)NC(=O)[C@@H]1CCCN1C(=O)[C@H](CO)NC(=O)[C@H](CO)NC(=O)[C@H](Cc1c[nH]cn1)NC(=O)[C@H](CCCNC(=N)N)NC(=O)[C@H](CC(C)C)NC(=O)[C@H](Cc1ccccc1)NC(=O)[C@H](CC(N)=O)NC(=O)[C@H](C)NC(=O)[C@H](CC(C)C)NC(=O)[C@H](CCCNC(=N)N)NC(=O)[C@H](CCC(N)=O)NC(=O)[C@@H](NC(=O)[C@H](C)NC(=O)[C@@H]1CSSC[C@H](NC(=O)[C@@H](N)CCCCNC(=O)CC[C@H](NC(=O)CC[C@H](NC(=O)CCCCCCCCCCCCCCCCCCC(=O)O)C(=O)O)C(=O)O)C(=O)N[C@@H](CC(N)=O)C(=O)N[C@@H]([C@@H](C)O)C(=O)N[C@@H](C)C(=O)N[C@@H]([C@@H](C)O)C(=O)N1)[C@@H](C)O)C(=O)N1CCC[C@H]1C(=O)N[C@@H](CO)C(=O)N[C@@H](CO)C(=O)N[C@H](C(=O)N[C@@H](CC(N)=O)C(=O)N[C@H](C(=O)NCC(=O)N[C@@H](Cc1c[nH]cn1)C(=O)N[C@@H](CC(N)=O)C(=O)N[C@H](C(=O)N[C@@H](Cc1ccc(O)cc1)C(N)=O)[C@@H](C)O)C(C)C)[C@@H](C)O, also called compound 86) | 352 | 2.8 | 126 | 159
K([γGlu-γGlu-C20 diacid])CNTATCATQRLANFLRHSSPNFGAIPSSTPVGPRTY-NH2 (disulfide 2-7; N-terminus assumed; SMILES CC[C@H](C)[C@H](NC(=O)[C@H](C)NC(=O)CNC(=O)[C@H](Cc1ccccc1)NC(=O)[C@H](CC(N)=O)NC(=O)[C@@H]1CCCN1C(=O)[C@H](CO)NC(=O)[C@H](CO)NC(=O)[C@H](Cc1c[nH]cn1)NC(=O)[C@H](CCCNC(=N)N)NC(=O)[C@H](CC(C)C)NC(=O)[C@H](Cc1ccccc1)NC(=O)[C@H](CC(N)=O)NC(=O)[C@H](C)NC(=O)[C@H](CC(C)C)NC(=O)[C@H](CCCNC(=N)N)NC(=O)[C@H](CCC(N)=O)NC(=O)[C@@H](NC(=O)[C@H](C)NC(=O)[C@@H]1CSSC[C@H](NC(=O)[C@@H](N)CCCCNC(=O)CC[C@H](NC(=O)CC[C@H](NC(=O)CCCCCCCCCCCCCCCCCCC(=O)O)C(=O)O)C(=O)O)C(=O)N[C@@H](CC(N)=O)C(=O)N[C@@H]([C@@H](C)O)C(=O)N[C@@H](C)C(=O)N[C@@H]([C@@H](C)O)C(=O)N1)[C@@H](C)O)C(=O)N1CCC[C@H]1C(=O)N[C@@H](CO)C(=O)N[C@@H](CO)C(=O)N[C@H](C(=O)N1CCC[C@H]1C(=O)N[C@H](C(=O)NCC(=O)N1CCC[C@H]1C(=O)N[C@@H](CCCNC(=N)N)C(=O)N[C@H](C(=O)N[C@@H](Cc1ccc(O)cc1)C(N)=O)[C@@H](C)O)C(C)C)[C@@H](C)O) | 52.4 | 0.381 | 137 | 48.6
K([γGlu-γGlu-C20 diacid])CNTATCATQRLAEFLRHSSPNFGAIPSSTNVGRETY-NH2 (disulfide 2-7; N-terminus assumed; SMILES CC[C@H](C)[C@H](NC(=O)[C@H](C)NC(=O)CNC(=O)[C@H](Cc1ccccc1)NC(=O)[C@H](CC(N)=O)NC(=O)[C@@H]1CCCN1C(=O)[C@H](CO)NC(=O)[C@H](CO)NC(=O)[C@H](Cc1c[nH]cn1)NC(=O)[C@H](CCCNC(=N)N)NC(=O)[C@H](CC(C)C)NC(=O)[C@H](Cc1ccccc1)NC(=O)[C@H](CCC(=O)O)NC(=O)[C@H](C)NC(=O)[C@H](CC(C)C)NC(=O)[C@H](CCCNC(=N)N)NC(=O)[C@H](CCC(N)=O)NC(=O)[C@@H](NC(=O)[C@H](C)NC(=O)[C@@H]1CSSC[C@H](NC(=O)[C@@H](N)CCCCNC(=O)CC[C@H](NC(=O)CC[C@H](NC(=O)CCCCCCCCCCCCCCCCCCC(=O)O)C(=O)O)C(=O)O)C(=O)N[C@@H](CC(N)=O)C(=O)N[C@@H]([C@@H](C)O)C(=O)N[C@@H](C)C(=O)N[C@@H]([C@@H](C)O)C(=O)N1)[C@@H](C)O)C(=O)N1CCC[C@H]1C(=O)N[C@@H](CO)C(=O)N[C@@H](CO)C(=O)N[C@H](C(=O)N[C@@H](CC(N)=O)C(=O)N[C@H](C(=O)NCC(=O)N[C@@H](CCCNC(=N)N)C(=O)N[C@@H](CCC(=O)O)C(=O)N[C@H](C(=O)N[C@@H](Cc1ccc(O)cc1)C(N)=O)[C@@H](C)O)C(C)C)[C@@H](C)O) | 452 | 2.86 | 158 | 14.7
K([γGlu-γGlu-C20 diacid])CNTATCATQRLAEFLRHSSPNFGAIPSSTNVGRNTY-NH2 (disulfide 2-7; N-terminus assumed; SMILES CC[C@H](C)[C@H](NC(=O)[C@H](C)NC(=O)CNC(=O)[C@H](Cc1ccccc1)NC(=O)[C@H](CC(N)=O)NC(=O)[C@@H]1CCCN1C(=O)[C@H](CO)NC(=O)[C@H](CO)NC(=O)[C@H](Cc1c[nH]cn1)NC(=O)[C@H](CCCNC(=N)N)NC(=O)[C@H](CC(C)C)NC(=O)[C@H](Cc1ccccc1)NC(=O)[C@H](CCC(=O)O)NC(=O)[C@H](C)NC(=O)[C@H](CC(C)C)NC(=O)[C@H](CCCNC(=N)N)NC(=O)[C@H](CCC(N)=O)NC(=O)[C@@H](NC(=O)[C@H](C)NC(=O)[C@@H]1CSSC[C@H](NC(=O)[C@@H](N)CCCCNC(=O)CC[C@H](NC(=O)CC[C@H](NC(=O)CCCCCCCCCCCCCCCCCCC(=O)O)C(=O)O)C(=O)O)C(=O)N[C@@H](CC(N)=O)C(=O)N[C@@H]([C@@H](C)O)C(=O)N[C@@H](C)C(=O)N[C@@H]([C@@H](C)O)C(=O)N1)[C@@H](C)O)C(=O)N1CCC[C@H]1C(=O)N[C@@H](CO)C(=O)N[C@@H](CO)C(=O)N[C@H](C(=O)N[C@@H](CC(N)=O)C(=O)N[C@H](C(=O)NCC(=O)N[C@@H](CCCNC(=N)N)C(=O)N[C@@H](CC(N)=O)C(=O)N[C@H](C(=O)N[C@@H](Cc1ccc(O)cc1)C(N)=O)[C@@H](C)O)C(C)C)[C@@H](C)O, also called compound 88) | 196 | 2.31 | 84.9 | 46.5
K([γGlu-γGlu-C20 diacid])CNTATCATQRLAEFLRHSSPNFGAIPSSTNVGSRTY-NH2 (disulfide 2-7; N-terminus assumed; SMILES CC[C@H](C)[C@H](NC(=O)[C@H](C)NC(=O)CNC(=O)[C@H](Cc1ccccc1)NC(=O)[C@H](CC(N)=O)NC(=O)[C@@H]1CCCN1C(=O)[C@H](CO)NC(=O)[C@H](CO)NC(=O)[C@H](Cc1c[nH]cn1)NC(=O)[C@H](CCCNC(=N)N)NC(=O)[C@H](CC(C)C)NC(=O)[C@H](Cc1ccccc1)NC(=O)[C@H](CCC(=O)O)NC(=O)[C@H](C)NC(=O)[C@H](CC(C)C)NC(=O)[C@H](CCCNC(=N)N)NC(=O)[C@H](CCC(N)=O)NC(=O)[C@@H](NC(=O)[C@H](C)NC(=O)[C@@H]1CSSC[C@H](NC(=O)[C@@H](N)CCCCNC(=O)CC[C@H](NC(=O)CC[C@H](NC(=O)CCCCCCCCCCCCCCCCCCC(=O)O)C(=O)O)C(=O)O)C(=O)N[C@@H](CC(N)=O)C(=O)N[C@@H]([C@@H](C)O)C(=O)N[C@@H](C)C(=O)N[C@@H]([C@@H](C)O)C(=O)N1)[C@@H](C)O)C(=O)N1CCC[C@H]1C(=O)N[C@@H](CO)C(=O)N[C@@H](CO)C(=O)N[C@H](C(=O)N[C@@H](CC(N)=O)C(=O)N[C@H](C(=O)NCC(=O)N[C@@H](CO)C(=O)N[C@@H](CCCNC(=N)N)C(=O)N[C@H](C(=O)N[C@@H](Cc1ccc(O)cc1)C(N)=O)[C@@H](C)O)C(C)C)[C@@H](C)O, also called compound 89) | 115 | 2.37 | 48.8 | 28
